Numbering of substitutions follows the chain as printed.
What was measured:
[1] = system: T1, B domain deleted FVIII (BDD FVIII), unmutated
T1 sequence: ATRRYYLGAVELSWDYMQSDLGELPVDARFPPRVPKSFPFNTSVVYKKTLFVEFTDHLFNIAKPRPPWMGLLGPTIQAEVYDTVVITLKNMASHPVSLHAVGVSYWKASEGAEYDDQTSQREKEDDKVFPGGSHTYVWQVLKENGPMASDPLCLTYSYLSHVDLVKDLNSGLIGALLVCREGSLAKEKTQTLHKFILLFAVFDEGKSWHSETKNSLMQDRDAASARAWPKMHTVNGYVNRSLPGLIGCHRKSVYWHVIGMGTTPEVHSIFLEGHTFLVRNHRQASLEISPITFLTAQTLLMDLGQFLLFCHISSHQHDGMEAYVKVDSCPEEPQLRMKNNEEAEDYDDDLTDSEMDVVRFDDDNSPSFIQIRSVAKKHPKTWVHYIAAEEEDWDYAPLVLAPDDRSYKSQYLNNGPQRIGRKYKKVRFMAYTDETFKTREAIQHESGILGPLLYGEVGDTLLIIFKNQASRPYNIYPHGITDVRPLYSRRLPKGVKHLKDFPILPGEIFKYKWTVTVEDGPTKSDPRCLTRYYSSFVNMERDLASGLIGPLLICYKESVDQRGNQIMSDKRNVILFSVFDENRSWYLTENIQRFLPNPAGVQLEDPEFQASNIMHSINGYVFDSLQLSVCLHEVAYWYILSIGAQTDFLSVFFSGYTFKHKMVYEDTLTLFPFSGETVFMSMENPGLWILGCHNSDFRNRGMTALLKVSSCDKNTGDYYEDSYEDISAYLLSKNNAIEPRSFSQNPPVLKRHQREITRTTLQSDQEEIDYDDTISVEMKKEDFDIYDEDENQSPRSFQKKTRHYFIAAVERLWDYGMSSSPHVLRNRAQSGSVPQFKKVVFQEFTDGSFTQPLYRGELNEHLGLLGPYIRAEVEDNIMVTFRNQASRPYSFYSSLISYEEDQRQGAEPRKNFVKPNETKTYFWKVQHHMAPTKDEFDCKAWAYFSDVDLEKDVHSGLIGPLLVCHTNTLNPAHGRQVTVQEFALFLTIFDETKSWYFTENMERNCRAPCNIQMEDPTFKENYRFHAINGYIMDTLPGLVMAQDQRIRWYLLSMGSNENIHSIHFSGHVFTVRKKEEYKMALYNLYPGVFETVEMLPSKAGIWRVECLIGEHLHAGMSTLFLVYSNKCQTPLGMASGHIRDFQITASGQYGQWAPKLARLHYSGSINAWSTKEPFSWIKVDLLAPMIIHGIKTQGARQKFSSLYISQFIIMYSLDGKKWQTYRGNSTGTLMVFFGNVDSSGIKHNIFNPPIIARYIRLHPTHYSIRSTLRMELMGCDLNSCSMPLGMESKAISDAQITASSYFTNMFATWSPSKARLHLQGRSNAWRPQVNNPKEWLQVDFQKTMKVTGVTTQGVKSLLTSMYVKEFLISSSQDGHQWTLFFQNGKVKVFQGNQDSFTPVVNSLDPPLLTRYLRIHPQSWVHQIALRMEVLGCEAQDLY

BDD FVIII mutein S2206C = system: T2, BDD FVIII mutein S2206C
T2 sequence: T1 sequence with L986F, S1312C

Substance: thrombin (Haematologic Technologies, Essex Junction, Vt.)
- thrombin cleavage, SDS-PAGE with silver staining [1]: Thrombin digestion of the muteins and control produced the expected cleavage fragments.
- thrombin cleavage, SDS-PAGE with silver staining (BDD FVIII mutein S2206C): Thrombin digestion of the muteins and control produced the expected cleavage fragments.

Source: patent US20150306234
